Patent US20260109763A1, “ANTI-PILRA ANTIBODIES, USES THEREOF, AND RELATED METHODS AND REAGENTS” (DENALI THERAPEUTICS INC., priority 2021, published 2026)

Tests used:
[1] = biological target: human PILRA R78 on cells (human) (UniProt Q9UKJ1); test: target engagement in brain lysate of human PILRA (R78) BACtg mice, 1 day after dosing; MSD assay, bound versus total PILRA
[2] = biological target: human PILRA R78 on cells (human) (UniProt Q9UKJ1); test: target engagement in brain lysate of human PILRA (R78) BACtg mice, 4 days after dosing; MSD assay, bound versus total PILRA

Chain of human PILRA R78 on cells (human) (Q9UKJ1 20-303 limits assumed): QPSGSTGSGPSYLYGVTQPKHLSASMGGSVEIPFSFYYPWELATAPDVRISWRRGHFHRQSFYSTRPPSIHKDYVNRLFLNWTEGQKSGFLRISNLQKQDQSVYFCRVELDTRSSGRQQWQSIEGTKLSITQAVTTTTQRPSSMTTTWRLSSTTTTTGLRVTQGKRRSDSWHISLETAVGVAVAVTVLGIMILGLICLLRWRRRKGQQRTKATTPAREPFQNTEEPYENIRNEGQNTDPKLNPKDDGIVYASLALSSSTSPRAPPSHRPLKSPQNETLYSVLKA

- percent of brain human PILRA bound, 1 day [1]: 17%
- percent of brain human PILRA bound, 4 days [2]: 16%
Substance: isotype control antibody
